We go through one substance from US20090047703A1.

The target in the experiment is HERG-1b (human) (UniProt Q12809). Nature of the experiment: cell-based or functional assay.

For the substance HERG-1a N-Terminal Domain fused to eCFP, the deactivation kinetics, two-electrode voltage clamp in Xenopus oocytes worked out at 10 fold.
